B1: SRC kinase associated phosphoprotein 1 (SKAP1), wild type, N2-fused [human] / LYN, N1-fused [not stated] (parent)
chain 1: MQAAALPEEIRWLLEDAEEFLAEGLRNENLSAVARDHRDHILRGFQQIKARYYWDFQPQGGDIGQDSSDDNHSGTLGLSLTSDAPFLSDYQDEGMEDIVKGAQELDNVIKQGYLEKKSKDHSFFGSEWQKRWCVVSRGLFYYYANEKSKQPKGTFLIKGYGVRMAPHLRRDSKKESCFELTSQDRRSYEFTATSPAEARDWVDQISFLLKDLSSLTIPYEEDEEEEEKEETYDDIDGFDSPSCGSQCRPTILPGSVGIKEPTEEKEEEDIYEVLPDEEHDLEEDESGTRRKGVDYASYYQGLWDCHGDQPDELSFQRGDLIRILSKEYNMYGWWVGELNSLVGIVPKEYLTTAFEVEER
chain 2: MGCIKSKGKDSLSDDGVDLKTQPVRNTERTIYVRDPTSNKQQRPVPESQLLPGQRFQTKDPEEQGDIVVALYPYDGIHPDDLSFKKGEKMKVLEEHGEWWKAKSLLTKKEGFIPSNYVAKLNTLETEEWFFKDITRKDAERQLLAPGNSAGAFLIRESETLKGSFSLSVRDFDPVHGDVIKHYKIRSLDNGGYYISPRITFPCISDMIKHYQKQADGLCRRLEKACISPKPQKPWDKDAWEIPRESIKLVKRLGAGQFGEVWMGYYNNSTKVAVKTLKPGTMSVQAFLEEANLMKTLQHDKLVRLYAVVTREEPIYIITEYMAKGSLLDFLKSDEGGKVLLPKLIDFSAQIAEGMAYIERKNYIHRDLRAANVLVSESLMCKIADFGLARVIEDNEYTAREGAKFPIKWTAPEAINFGCFTIKSDVWSFGILLYEIVTYGKIPYPGRTNADVMTALSQGYRMPRVENCPDELYDIMKMCWKEKAEERPTFDYLQSVLDDFYTATEGQYQQQP
B2: SRC kinase associated phosphoprotein 1 (SKAP1), wild type, N2-fused [human] / FRK, N1-fused [not stated] (parent)
chain 1: B1 chain 1
chain 2: MSNICQRLWEYLEPYLPCLSTEADKSTVIENPGALCSPQSQRHGHYFVALFDYQARTAEDLSFRAGDKLQVLDTLHEGWWFARHLEKRRDGSSQQLQGYIPSNYVAEDRSLQAEPWFFGAIGRSDAEKQLLYSENKTGSFLIRESESQKGEFSLSVLDGAVVKHYRIKRLDEGGFFLTRRRIFSTLNEFVSHYTKTSDGLCVKLGKPCLKIQVPAPFDLSYKTVDQWEIDRNSIQLLKRLGSGQFGEVWEGLWNNTTPVAVKTLKPGSMDPNDFLREAQIMKNLRHPKLIQLYAVCTLEDPIYIITELMRHGSLQEYLQNDTGSKIHLTQQVDMAAQVASGMAYLESRNYIHRDLAARNVLVGEHNIYKVADFGLARVFKVDNEDIYESRHEIKLPVKWTAPEAIRSNKFSIKSDVWSFGILLYEIITYGKMPYSGMTGAQVIQMLAQNYRLPQPSNCPQQFYNIMLECWNAEPKERPTFETLRWKLEDYFETDSSYSDANNFIR
B3: SRC kinase associated phosphoprotein 1 (SKAP1), wild type, N2-fused [human] / SRMS, N1-fused [not stated] (parent)
chain 1: B1 chain 1
chain 2: MEPFLRRRLAFLSFFWDKIWPAGGEPDHGTPGSLDPNTDPVPTLPAEPCSPFPQLFLALYDFTARCGGELSVRRGDRLCALEEGGGYIFARRLSGQPSAGLVPITHVAKASPETLSDQPWYFSGVSRTQAQQLLLSPPNEPGAFLIRPSESSLGGYSLSVRAQAKVCHYRVSMAADGSLYLQKGRLFPGLEELLTYYKANWKLIQNPLLQPCMPQKAPRQDVWERPHSEFALGRKLGEGYFGEVWEGLWLGSLPVAIKVIKSANMKLTDLAKEIQTLKGLRHERLIRLHAVCSGGEPVYIVTELMRKGNLQAFLGTPEGRALRLPPLLGFACQVAEGMSYLEEQRVVHRDLAARNVLVDDGLACKVADFGLARLLKDDIYSPSSSSKIPVKWTAPEAANYRVFSQKSDVWSFGVLLHEVFTYGQCPYEGMTNHETLQQIMRGYRLPRPAACPAEVYVLMLECWRSSPEERPSFATLREKLHAIHRCHP

Variants of B1 are the subject of the first assay. In words: luciferase complementation assay (normalized luciferase ratio, NLR). The note with it: with LYN, HEK293T cells, one experiment, read off a plot.
As to chain 1 W333K, the ratio to parent came out at 1.8.
On the same count and under the same terms, as for chain 1 D120K, the figure is 1.4.

The variants in the next assay derive from B2. The description is as above. Conditions: with FRK, HEK293T cells, one experiment, read off a plot.
For chain 1 MQAAALPEEIRWLLEDAEEFLAEGLRNENLSAVARDHRDHILRGFQQIKARYYWDFQPQGGDIGQDSSDDNHSGTLGLSLTSDAPFLSDYQDEGMEDIVKGAQELDNVIKQGYLEKKSKDHSFFGSEWQKRWCVVSRGLFYYYANEKSKQPKGTFLIKGYGVRMAPHLRRDSKKESCFELTSQDRRSYEFTATSPAEARDWVDQISFLLKDLSSLTIPYEEDEEEEEKEETYDDIDGFDSPSCGSQCRPTILPGSVGIKEPTEEKEEEDIYEVLPDEEHDLEEDESGTRRKGVDYASYYQGLWDCHGDQPDELSFQRGDLIRILSKEYNMYGKWVGELNSLVGIVPKEYLTTAFEVEER [chain 1 W333K], the ratio to parent is 0.84.
On to chain 1 MQAAALPEEIRWLLEDAEEFLAEGLRNENLSAVARDHRDHILRGFQQIKARYYWDFQPQGGDIGQDSSDDNHSGTLGLSLTSDAPFLSDYQDEGMEDIVKGAQELDNVIKQGYLEKKSKKHSFFGSEWQKRWCVVSRGLFYYYANEKSKQPKGTFLIKGYGVRMAPHLRRDSKKESCFELTSQDRRSYEFTATSPAEARDWVDQISFLLKDLSSLTIPYEEDEEEEEKEETYDDIDGFDSPSCGSQCRPTILPGSVGIKEPTEEKEEEDIYEVLPDEEHDLEEDESGTRRKGVDYASYYQGLWDCHGDQPDELSFQRGDLIRILSKEYNMYGWWVGELNSLVGIVPKEYLTTAFEVEER [chain 1 D120K], for which the ratio to parent is 1.

Variants of B3 are the subject of another assay. The assay is described as above. The note with it: with SRMS, HEK293T cells, one experiment, read off a plot.
As for chain 1 MQAAALPEEIRWLLEDAEEFLAEGLRNENLSAVARDHRDHILRGFQQIKARYYWDFQPQGGDIGQDSSDDNHSGTLGLSLTSDAPFLSDYQDEGMEDIVKGAQELDNVIKQGYLEKKSKDHSFFGSEWQKRWCVVSRGLFYYYANEKSKQPKGTFLIKGYGVRMAPHLRRDSKKESCFELTSQDRRSYEFTATSPAEARDWVDQISFLLKDLSSLTIPYEEDEEEEEKEETYDDIDGFDSPSCGSQCRPTILPGSVGIKEPTEEKEEEDIYEVLPDEEHDLEEDESGTRRKGVDYASYYQGLWDCHGDQPDELSFQRGDLIRILSKEYNMYGKWVGELNSLVGIVPKEYLTTAFEVEER [chain 1 W333K], the ratio to parent came to 1.2.

Values taken from publication PMC10939263.
